From publication PMC8476842, “Uncovering and Engineering a Mini-Regulatory Network of the TetR-Family Regulator SACE_0303 for Yield Improvement of Erythromycin in Saccharopolyspora erythraea”

What was measured:
[1] = molecular target: T1, SACE_0303 (TetR-family regulator) (Saccharopolyspora erythraea) (UniProt A4F6H8); assay: EMSA; conditions: EMSA: 10 mM Tris-HCl pH 7.5, 60 mM KCl, 50 mM EDTA (so in the source), 10 mM DTT, 5 mM MgCl2, 10% glycerol, 150 ng probe, 20 uL, 30 C 20 min; footprint at 20 C
T1 sequence: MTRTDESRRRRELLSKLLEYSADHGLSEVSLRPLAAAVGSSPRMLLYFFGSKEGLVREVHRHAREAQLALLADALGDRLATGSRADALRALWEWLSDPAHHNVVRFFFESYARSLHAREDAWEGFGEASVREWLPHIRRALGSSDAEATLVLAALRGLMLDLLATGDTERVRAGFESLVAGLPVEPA

[2] = molecular target: T1, SACE_0303 (TetR-family regulator) (Saccharopolyspora erythraea); assay: DNase I footprinting; conditions: EMSA: 10 mM Tris-HCl pH 7.5, 60 mM KCl, 50 mM EDTA (so in the source), 10 mM DTT, 5 mM MgCl2, 10% glycerol, 150 ng probe, 20 uL, 30 C 20 min; footprint at 20 C
[3] = molecular target: T2, SACE_0303 (TetR-family regulator) (Saccharopolyspora erythraea, UniProt A4F6H8 1-187); assay: EMSA; EMSA: 10 mM Tris-HCl pH 7.5, 60 mM KCl, 50 mM EDTA (so in the source), 10 mM DTT, 5 mM MgCl2, 10% glycerol, 150 ng probe, 20 uL, 30 C 20 min; footprint at 20 C; conditions: protein: recombinant; tags: His6 (pET28a, NdeI/HindIII); chain copies: 2; blunt
T2 sequence: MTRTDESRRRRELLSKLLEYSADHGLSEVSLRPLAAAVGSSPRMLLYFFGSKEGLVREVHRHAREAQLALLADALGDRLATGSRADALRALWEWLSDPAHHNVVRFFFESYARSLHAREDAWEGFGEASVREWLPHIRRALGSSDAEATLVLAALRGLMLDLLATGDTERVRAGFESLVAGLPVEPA

AGCTTTGACAGGTCCGCCACGCGTCCCCCTACTCGACGACCACGCAATGGGCGAACAATATAGGAAGGATCAAGAGGTTGACATCGCCTCGTCGAGCCAACGAACCTGTGAACATCTGCATGTTGACAAGATCAACGGCGGCTACCTACTGTGGTGGCCCAGTGACGGGTTGCCGCACATCGCGCTGGGGAGATTCTTTGAATTTCGCCCGTAGCACCGACCTGGAAAGCGAGCAAATGCTCCGGTGAATGGGATCAGTGATTC (double strand) [PeryAI]
binding [1]: no binding

CGACCTCGGCCGCCTGCTGTCCTGCCGGCGGGCGGCACGTGCCGCGGTCCGCTGAAACGGTTGCGAAAACGGGAAATCACCGCTGAGGGTGGCCGCCGCCGGCGGATTGCGCCGCCGAGATCGGCATGCCTAGGCTTCCACCACCGCTCCATCACGTGCGGGGTCCGGGTCCGGGAGCAGCCGATGCCGCAAGACGCGTGTACTTCCGCCCGGCAGAACACGTCCTCG (double strand) [P3156]
binding [1]: binds

CGCTGGATCCTACCAACCGGCACGATTGTCCAGCCCACAACAGCATCGCGGTGCCACGTGTGGACCGCGTCGGTCAGATCCTCCCCGCACCTCTCGCCAGCCGTCAAGATCGACCGCGTGCACCTGCGATCGCCGATCAACCGCGACTAGCATCGGGCGCAAGCCGCCACTCGAACGGACACTCGC (double strand) [PermE]
binding [1]: no binding

GGCGACGGCGGCTTTCGTCGGTGCGGGTCATCCGGATATCGTACTGAAACGACTGTTTCAGGAGGGCGCATGGGCGGCATCGAGATCCGCACCGGCCCGC (double strand) [P0303-0304]
binding [2]: binds
binding [1]: binds

B1: P0303-0304-56 bpM (dsDNA)
DNA 1: GGGTCATCCGGATATCGTAAAGCTTGGACTGGAATTCGAGGGCGCATGGGCGGCAT
DNA 2: ATGCCGCCCATGCGCCCTCGAATTCCAGTCCAAGCTTTACGATATCCGGATGACCC
binding result [3]: no binding
